The series is described as follows: protease stability score; higher = more stable; yeast display proteolysis, trypsin and chymotrypsin.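 Further: relative to predicted unfolded state with 0 unfolded-like and 1 meaning tenfold more protease.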
“DEKTEEIERFFKKWVEALRTGDWKTLMELLDPNARFDINGREIIGREIYVKILKEELKHFGVTRIHNEVEIKHSDEQGNKLNLDGKLIINWDGKNDETRLILYVLKVDGRWIIEEVRIR” displayed a protease stability score of 1.44.
“DEKTEHERELSERLLKAILTGDEDLFKELADPNVRIISEIDGRKDESHGWTAWHRIMQSLGFNVMRIDHHELINGVQYVESTLDINGVRRKTHLIIRIINGKVKEVRFSID” returned a protease stability score of 1.88.
The sequence “DEKTEISEELLKIFVDLLQTGDEDIFQDMMDPRAQVHVNGKRIHGREHIIHWFREAHRHLGVKHTHIHRVEIQGEKVYIDGRLHYNGRDFNTHLIFDVINGRVKSMELRQH” came in with a protease stability score of 1.09.
“DEKTEISEFALELFKESYDTGDEHTINRLADPHYRVVIGDKDLIGMEWLEHVIRHHKERVDHYRDVTVKDIKVIGNKVIADIRSHVHVDGQERDLDIDLVVFKINGRWRIKMIKID”: the protease stability score was determined as 1.15.
For “DEKTEIVSRIMIVFFHALLTGDWETLKKNADPHVKLEAEGRKSHGMEELVRWIHEEIKRIPGIRFELKRYDVQGDKVEIEGRVRINGVEFELIIESVIVDGKLKSIREEWR”, the protease stability score was found to be 1.41.
Regarding “DEKTEKEQRWFEEILHAILTGDEEFLLRNADPNTRSHFNGRDVHGMELLSEIWTKHVEDLGFDHAHIRSVKVFDGRFILNMQIHVNGVELDVHLIYDVVDGVVKRVIVETHKH”, the protease stability score came to 0.442.
Regarding “DEKTEQSREIIELLLKALQTGDEDTLTELLDPHVKIHIGDKDYHGREEVSRLLQEFWDRFKNARIEIHDYRDINGRVHVDLRHVVGDKTYTSKWNILKVNGRWYIEQIHVH”, the protease stability score is 2.07.
“DEKTKEVEHLTEYLREVWETGDFESLHEMMDPHVRVDIGDKHVHGREAVAHHFRKHLENWGVTRFRIEFHVRDVRDINGVVHLDTELRILFDGVLITMRTRFIIEKINGRWVFREVIVR” yielded a protease stability score of 2.63.
“DEKYKRVEQAVRIYLELISTGDEEMISHYVDPNVQAEVGDYEHHGMEEFIKVVSRVDYLEHSEWKDWRYVDGRIEIEGHLYGKINGKRDVLDIRIIASKVNGKWRLHKVTIK” yielded a protease stability score of 1.41.
The result for “DELAEYAKEVIERIDHSITTGDERSVKRLLDPDVKLLIGDKELHGREDWEEWMKRIDHVSVRDSRIKEVKVYDGRLRIDGHKRMYYFNENEEREHTTRVVIILLKIDGRWVMHSVHFI” reads 1.4; that for “DELDDITEHLLHRFVDSLITGDEDLLEKYADPNAKLIIEIGDKRIERHGMHRFYELLLRFKNVKLDVKEIHVQGDKATIESTLQYGDKKHDTRLEVEFYDGRLKIIRWEIR”, 2.25; that for “DELDEELHKLFEKYLRSHLTGDFHSLERLLDPNARLIWIVDGKMINIHGREDISRFLREWEEEARHHHHELKEVDTQGNYFHSRMHEDGHINGVRRKIHVTHNIVMIDGKLESITHIII”, 1.08.
“DELDEFREYWIRYVEEVFRTGDFEKHLSLMDPNARVLVDGKELHGREFLEVHMRRIKNATVRDVHHHDMEIQGDKVTLDVDVHVNVNGRDVDKHVLIISEKVNGRWISRSLEVR” displayed a protease stability score of 0.628.
The result for “DELDEILVRIAEMVVEIWETGDWEWLEHLLDPHVRLQIGDKEVHGREAIREMIHELLNKLPNIRSHIRLREVRYYNGKAHFNTELRLHINGRDLRSRVRYEILVVDGRVRSMHVEIR” reads 1.09; that for “DELDEQVEELARDIIRNWHTGDEERWEHLADPHVRVTIDGRLHIGREEAMKMLRHWLKRIDHITVNIRRIHVFNGRSEVHSELTMHVGDKNIHHHEIINIVIVDGRIHNQEIHLK”, 1.39.
In turn, “DELDHDIERNLRLWLEALYTGDFEFLLRLVDPNVRMHINGVNDHGWKFAEFLIRRADHSEMEIRIRHVHEVNGVLRMDGEVKFDIRQGDKSREKHIEVHMVLMKVNGQWFVKSFEFK” registered a protease stability score of 1.47.
As for “DELDHEIRHVLHIIHHLLLTGDEEIFEEMADPDPRLDLVYGDKKIHVHGWKNILDMLKRLLDHWRIRHVEIKRITTQGNKAHLDTRSNLIINGRELIVIIELNVVTFNGVMKDMRIKIV”, the protease stability score was 1.65.
Take “DELDKLAHIMMEEILRNWVTGDEDRHNELADPTVRMHSIVGDKHLEIHGREIFTEFLKRIKNVTFEIRLTDLKIQGEKAHSHTRLILRFDGQQVERDTEVTIIVINGRVKDVSIIIR”: the protease stability score is 1.06.
Consider “DELDKRTREFTRLFLEWEETGDFHTMLNFLDPNARVDVNGVHLIGREKMVEHFLTEHERIDHREWHLRRIHYYDGRSDIDGHITLFVDGQEIHIRVHVIFFVVDGRMHMVEKRII”, for which the protease stability score is 0.751.
As for “DELDRISTRLADLFIHLVETGNWEFLKELLDPDVRMIIGDFELVGRETIIEFFEKLERHLGVDHSEIVIERRHSQGEKAELHTRLIVRVNGRKRVIDTRLELHWVDGRLKEINIHEH”, the protease stability score was found to be 1.17.
As for “DELDRLAEDWVKIIIHSLKTGDEDTLHKMADPNYQVEIGDFRFHGRERWIHVLREHREELGVTRVHSELHELHTFNGRAVSVVDLHVNGVTLHVIVFVRKVNGRWQDTSQVYKYE”, the protease stability score came to 0.491.
Turning to “DELDRLMRHISKLWVELLLTGNEEITSHLADPDARLHINGRDTIGREEYIRMYHEWLNEIRIRDFHIHSIKTQGNKANTDSELDLEVNGKRLDLRITIIILNINGRMKSVKVEVI”, the protease stability score is 0.99.
The sequence “DELDRRAKKMLRIWLEERFTGDEETVSKLADPDTRTQIHVGDKDLVSIGMESVSEFLRRMIHHWRIEHVKVKDTKVFDGVAHLHGEIHGNIDGQRVDVRLEVRVVVINGRIHSMSEEFT” registered a protease stability score of 1.61.
As to “DELDRTVEEVSRYFMRNYITGNEERLWEMADPHVKFISEHHESHGMEEHKKFLEEAGITNVKFDIHDQKVFNGVVVVNGKIHVNGRTVDVRLISEKFDGRWHLHIIRVD”, the protease stability score amounted to 1.15.
“DELDSILEEFARVFMQNLETGDEDSSRHYLDPHYRVELDIGDWTIQMHGWRSDHIRRRYLGADHERILIRDYRVYNGRIRVEGQMDITVNGKRVTYHTEFILHVVNGKATRVSMKFE”: the protease stability score is 0.707.
In the case of “DELEDDSRRAMETLIEIEKTGDWDLMYQLADPHVKLDINGRIIHGRDEFERRIHEHLTELGIKHHHVKHFQIRIVDGRMEVRLDGILRFNGKDLDVEIVLIVLKVNGRWLLEHSSVKYK”, the protease stability score was found to be 1.38.
Take “DELEDLAQKTHELFVQHYRTGDEDHLRHLLDPNAIMEIGDYHFIGREEILKFLVHWRIHRSEIKHLHVQGDKAEQEVEVDIEIGDKRFRTETHSIWIKINGKWFMHDFTVK”: the protease stability score amounted to 2.17.
Turning to “DELEEDSKKFFEILIKAYWTGDFTTLSRMMDPHVRNDINGRDIHGMEELSRVETEISRKYGADHFDFHIKDFKVQGEKLTVHGRIIIRVNGKTFEHDEIFYLIKIDGKWTWESVEVL”, the protease stability score amounted to 0.989.
With “DELEEDVRSSLKVLLHSHRTGNEELNEKMADPNARVTVDGVEFHGREEMVHWISHIRVERFILRSVHFQGDKLHIDGESDGVVNGRRWRRRTHIIELKVDGKWVLKSLIFE”, the protease stability score was 1.46.
Turning to “DELEEELDQFQKLMVESSKTGDEDTEKKLADPNVRVDINGVILHGMENFVEFMRHWRIKHIHNKEVRFINGRAHVTGDVEGHVNGRDTRTRVTLIIIKINGRWFIEEVKFD”, the protease stability score turned out to be 1.37.
The result for “DELEEELETAERISHEVLDTGDERIWSKLIDPNARLQIGDKEYHGREEVQRFFLEFGFKVSDIHSVKVQGDKIHVDTRSRVDGKEIELQLNSEKINGKWVLRHIHVWKR” reads 1.28.
On to “DELEEETERMFRIIIEFMLTGDWKTLYKLFDPNMLMIINGKELHGRESMATALKFWLRHIREDDIKIHHVELQGEKAISDGRSRGEIGDKEQTRKVHIEVIVINGRVHHVRVDIH”, for which the protease stability score came out at 0.819.
As for “DELEEETREAIRLMFESVKTGDEDSIKHLADPHVRVLINGRDDHGMKILHHLFSRFKNLTIELKRVHVYGEKAEVHTNWHINGRYYHVIWILIKINGRWFIESIEIH”, the protease stability score was 1.61.
For the sequence “DELEEETRFILEYLRHSWKTGDWRLESRMADPDVRLDVDGKHLHGREMVSHFAKRLSERVDHSEFIERDLRIQGNKIELHGELILRFNGVEVHRELHLHISKVNGRWVLKDIRIG”, the protease stability score stood at 0.831.
Sequence “DELEEETRRFAKHWVESLLTGDEDKLSRLMDPNVILDVNGREHIGWERAVHHLSRLLKELGAKHINVRLHELRIYDGVAEIDSRLQIIVGDKTEEHNVKLVITKVDGRWVVKSITIH” registered a protease stability score of 1.95.
“DELEEEVLKALDEWLRSLATGDFDTLTHLMDPNAKTHIGDKHYHGRELLEIWIKRVDHVHRLHFRLRRYRVVGNKVELDGELEIDGEINGRHTNHSEDIRIVLHKIDGRWVVESMIIR” came in with a protease stability score of 2.53.
With “DELEEEVMEFIRVFIHLLNTGDEDHLHELIDPNVRVEDENEEKHGRDTVEHMQRFFKNLRVTDLKVETFEVQGEFVHVHVDIEERVGDKHFHYKVLYIILKVDGRWLMHQVRFH”, the protease stability score turned out to be 2.12.
Take “DELEEFLHTIMELVVRNMFTGDEDSFNNLADPDVKSHINGKNAVGREEIIRVWKEWVEEIRTTHYDIHDFTIIGDKAHSDTRVDGTFNGVRDTIDTRVIVLVVDGRLKSLEIRMH”: the protease stability score stood at 0.986.
The sequence “DELEEILEELFRRMLEWLRTGDEEAMSKLADPHYKLLWNGREHVGREVILERLEKINQHLRIRHIHIHEIRFIDGRVESDTRVDGEVNGRRTEYTQKVIIFIVNGRFKFLEIQLR” came in with a protease stability score of 1.71.
For “DELEEISDTALKMFEHVVKTGDWRELEKLLDPNVKIYYNGREYHGREEAVRIWKEILDRFGADHFELRLRHKHVQGDKVSYHIELRLHYDGKTHHTFMRIIFLKVDGKWLEHELHIH”, the protease stability score was 2.38.
The figure for “DELEEISRRAQELSLRLFHTGDERSWERLVDPHAKLDVNGVDVHGRELVHKFFERNIRELGIKHIHLEHEEVQGNKVKLIMHINVNGVERRLVIIAEKIDGRWVLREHKEE” is 0.464.
The result for “DELEEKIHRWAELFLKMVLTGNEEFFRHLFDPDARSDINGVRVIGREDMDEVLKFWLDHLRFEHWVYTEVRIYDGRMEVHTRHDIDVNGVLYRRQMRIHLDVVDGRVKEASITRE” reads 1.37; that for “DELEELAEKIIRRLSELLLTGDFRELERFADPHTRVDINGKEFHGREFFSKLWLEMVRRFDHIEVHVHHMEIQGDKVFIDSRLHLLQGDKKEDREVLFILRKIDGRWILTVWKIR”, 2.32; that for “DELEELEKEAIKESEDILRTGDEERILRLADPNVRVDIDGVVRHGREWWTRLFSDELRKFKGARIRLKEIRSFDGRIRIDTTLEVDGVTRDMYVISEKVNGRWIIRSIHYE”, 1.33.
As to “DELEELIRKLAELFFEILRTGDEDKLRKLLDPHAKFTFIINGVIIDSIGRDFILKLHEDLWRRIKNVRMEYERVEVQGDKAYFRTRMNFNGKETETNLHLIIVDGKLKQESWEIE”, the protease stability score stood at 0.738.
In the case of “DELEELLQRAIKMFKDTNETGDEETLEKLLDPNVRYQVGDKEFHGREAIHVIFRRADHWKEMRIRSFRVYDGRAELDVEEVIFYNGVEIRTRTRIHFRKVDGRWYVHSIEIS”, the protease stability score worked out at 1.53.
The figure for “DELEENSRLALELWINSFLTGDEDTTEKMADPHVRLIIDGKLFHGREAFSEHMLERSLRADHTEVRLHDRKIVGDKLIIDTRIHSHVNGVDVTLNVLLIMHKYDGRWRIHSVEIH” is 1.23.

(Values after the NTF2 design screens of Basanta et al. (2020).)
